B1: POU domain, class 4, transcription factor 3, residues 185 to 256; numbered along this chain, Q15319 (parent)
chain: RELEAFAERFKQRRIKLGVTQADVGAALANLKIPGVGSLSQSTICRFESLTLSHNNMIALKPVLQAWLEEAE

± gives the uncertainty stated by the source.

Experimental findings from the Human Domainome abundance scans (Beltran et al. 2025) are described below.

Variants of B1 are the subject of this data set. Briefly: abundance fitness (aPCA) (normalised: wild type 0, dead -1); higher = more abundant; growth selection in yeast, the domain comes from the species named. The settings on record: Homo sapiens.
Consider A22M, for which the abundance fitness is -0.179 ± 0.1.
For A22P the value was -0.469 ± 0.05; for A22N, -0.02 ± 0.074; for A22I, -0.5 ± 0.053.
For A22H the value was -0.107 ± 0.073; for H54Y, -0.027 ± 0.38.
H54P: the abundance fitness was determined as 0.102 ± 0.28.
To I44V belongs 0.08 ± 0.16.
To G18Q belongs -0.193 ± 0.12.
As for G18D, the abundance fitness was -0.463 ± 0.21.
To G18C belongs -0.572 ± 0.097; to L52P, -0.984 ± 0.49; to L52M, -0.55 ± 0.47.
For G35P the value was -0.285 ± 0.06; for G35Y, -0.26 ± 0.074; for G35F, -0.231 ± 0.14.
To L17V belongs -0.682 ± 0.21; to L17K, -0.466 ± 0.19.
With L17M, the abundance fitness is -0.099 ± 0.16.
To R46M belongs -0.184 ± 0.1; to R46G, 0.125 ± 0.097; to R46T, -0.661 ± 0.083.
For R46I the value was -0.806 ± 0.16.
For the variant I58F, the abundance fitness was found to be 0.078 ± 0.14.
To I58P belongs -1.06 ± 0.26.
Regarding I58S, the abundance fitness is -0.034 ± 0.055.
To I58Q belongs -0.055 ± 0.072.
For I58T the value was -0.044 ± 0.072; for Q21M, -0.502 ± 0.17.
To Q21L belongs -0.192 ± 0.1.
Regarding Q21H, the abundance fitness stood at 0.294 ± 0.16.
To Q21R belongs -0.31 ± 0.17.
For Q21T the value was -0.193 ± 0.21; for I33S, -0.764 ± 0.19; for I33V, -0.515 ± 0.32.
As to I33N, the abundance fitness is -0.341 ± 0.16.
To S49T belongs 0.037 ± 0.06; to S49V, -0.718 ± 0.11; to S49M, -0.117 ± 0.11.
To S49A belongs 0.016 ± 0.065.
For S49K the value was -0.039 ± 0.1; for V63S, -0.162 ± 0.12.
Regarding V63W, the abundance fitness was -0.022 ± 0.094.
For V63R, the abundance fitness is -0.157 ± 0.049.
With V63A, the abundance fitness is -0.135 ± 0.095.
To K16W belongs -0.224 ± 0.037.
For K16T the value was -0.063 ± 0.033.
To K16R belongs -0.01 ± 0.027.
K16E: the abundance fitness is 0.077 ± 0.067.
For K16A the value was 0.055 ± 0.039.
As for K16I, the abundance fitness is -0.192 ± 0.1.
To K16F belongs -0.284 ± 0.058; to K16H, -0.077 ± 0.045; to K16Y, -0.195 ± 0.091.
To I15F belongs -0.32 ± 0.078; to I15C, -0.223 ± 0.1; to I15Q, -0.321 ± 0.12.
To I15H belongs -0.37 ± 0.19; to I15S, -0.183 ± 0.12; to I15G, -0.423 ± 0.14.
In the case of I15A, the abundance fitness is -0.093 ± 0.15.
Consider I15Y, for which the abundance fitness was -0.32 ± 0.086.
To A29H belongs -0.083 ± 0.14.
To A29C belongs 0.031 ± 0.085; to A29K, 0.023 ± 0.056; to A29Y, -0.305 ± 0.082.
To A29F belongs -0.086 ± 0.12; to A29R, -0.114 ± 0.076.
In the case of A5T, the abundance fitness is -0.002 ± 0.23.
For A5M the value was 0.109 ± 0.099; for K11S, -0.208 ± 0.054; for K11F, -0.478 ± 0.063.
To K11N belongs -0.88 ± 0.24; to K11E, -0.945 ± 0.3.
For L3N the value was -0.605 ± 0.12; for L3T, -0.109 ± 0.18.
With L3V, the abundance fitness worked out at 0.074 ± 0.13.
On to E8T, for which the abundance fitness was 0.053 ± 0.065.
For E8F the value was -0.005 ± 0.12; for E8C, -0.212 ± 0.071.
E8P: the abundance fitness was -0.698 ± 0.19.
Take E8S: the abundance fitness is -0.033 ± 0.055.
Regarding K32L, the abundance fitness was -0.146 ± 0.03.
To K32A belongs -0.056 ± 0.038; to K32T, -0.088 ± 0.051; to K32W, -0.162 ± 0.052.
For K32N the value was 0.004 ± 0.047; for K32S, -0.031 ± 0.032.
As to K32H, the abundance fitness was -0.113 ± 0.068.
In the case of K32P, the abundance fitness is -0.158 ± 0.044.
For K32I the value was -0.049 ± 0.045.
Turning to K32G, the abundance fitness is -0.169 ± 0.039.
To F10L belongs -0.697 ± 0.27; to F10W, -0.287 ± 0.09; to F10G, -1.03 ± 0.068.
To F10I belongs -0.813 ± 0.3; to F10V, -0.765 ± 0.1; to G25Q, -0.531 ± 0.36.
As for G25R, the abundance fitness was -0.203 ± 0.12.
To G25C belongs 0.143 ± 0.099.
To G25D belongs -0.392 ± 0.25.
For G25A the value was 0.117 ± 0.11.
As for G25E, the abundance fitness is -0.054 ± 0.17.
To E72K belongs -0.384 ± 0.052; to E72L, -0.363 ± 0.024; to E72Q, -0.263 ± 0.042.
For E72S the value was -0.153 ± 0.028; for M57A, -0.173 ± 0.11; for M57Q, -0.359 ± 0.12.
To M57V belongs -0.259 ± 0.19; to S38V, 0.065 ± 0.16.
Take S38H: the abundance fitness was -0.018 ± 0.036.
Consider S38F, for which the abundance fitness was 0.057 ± 0.095.
To S38Y belongs -0.055 ± 0.051.
To S38R belongs -0.052 ± 0.14; to S38N, 0.022 ± 0.021.
As to L68G, the abundance fitness was -0.685 ± 0.042.
To L68R belongs -0.96 ± 0.068; to L68V, -0.13 ± 0.026; to L68C, -0.257 ± 0.072.
As to L68P, the abundance fitness was -1.06 ± 0.14.
For L31Q the value was -0.202 ± 0.28.
To L31M belongs -0.284 ± 0.18.
For L31V the value was 0.086 ± 0.12; for L31D, 0 ± 0.49; for L31N, -0.565 ± 0.3.
In the case of L31E, the abundance fitness stood at 0.143 ± 0.37.
Turning to L31F, the abundance fitness is -0.034 ± 0.14.
In the case of T51G, the abundance fitness was -0.174 ± 0.077.
For T51L the value was -0.13 ± 0.056; for T51M, 0.096 ± 0.17; for T51V, -0.112 ± 0.073.
For T51E the value was -0.146 ± 0.29.
For T51F the value was -0.578 ± 0.31.
Take S53R: the abundance fitness was -0.229 ± 0.054.
To S53T belongs -0.208 ± 0.11.
For S53H the value was -0.174 ± 0.12; for P34I, -0.419 ± 0.32; for P34S, -0.124 ± 0.061.
For P34F the value was -0.474 ± 0.1.
For the variant P34R, the abundance fitness is -0.353 ± 0.12.
For P34V the value was -0.271 ± 0.14; for P34W, -0.571 ± 0.36; for V24A, -0.142 ± 0.052.
For V24Q the value was -0.825 ± 0.075; for V24S, -0.785 ± 0.041.
In the case of V24D, the abundance fitness is -0.675 ± 0.2.
For V24W the value was -0.61 ± 0.055.
L64E: the abundance fitness was -0.788 ± 0.049.
For L64N the value was -0.758 ± 0.11; for L64G, -0.836 ± 0.037.
For L64K the value was -0.678 ± 0.066; for L64C, -0.717 ± 0.084.
To V36R belongs -0.332 ± 0.052.
Turning to V36T, the abundance fitness is -0.3 ± 0.079.
For V36E the value was -0.055 ± 0.2; for V36M, 0.044 ± 0.1.
To F6C belongs -0.731 ± 0.25; to F6L, -0.221 ± 0.25; to F6V, -0.701 ± 0.17.
For F6Y the value was -0.118 ± 0.26.
As for F6D, the abundance fitness is -0.293 ± 0.28.
To F6M belongs -0.327 ± 0.25; to T43R, -0.607 ± 0.11.
For T43C the value was -0.333 ± 0.23.
To T43W belongs -0.382 ± 0.14; to T43E, -0.235 ± 0.26.
